Test [1] deals with tissue factor (TF) antigen (UniProt P13726). As to the kind of experiment: SPR, Fab captured on anti-penta-His, TF as analyte; against wild-type D3H44 Fab; batch C. A general note: In SPR one partner is held on a chip, and binding of the other changes the refractive index at the surface.
Test [2] has the same target. Nature of the test: SPR, Fab captured on anti-penta-His, TF as analyte, 1:1 fit; batch C.
The target is the same in test [3]. Nature of the test: SPR (ProteOn XPR36): His-tagged Fab captured on anti-penta-His surface, TF as analyte, 1:1 fit; value estimated (*) from the Fab differing only in the L chain tag.
Test [4] shares this target. As to the kind of experiment: SPR, against wild-type D3H44 Fab.
Test [5] has the same target. As to the kind of experiment: SPR (ProteOn XPR36), Fab captured on anti-penta-His, TF injected, 1:1 fit.
In test [6] the target is D3H44 light chain Q124E_L135W_Q160E_T180E. Nature of the test: LCCA, SPR tag readout, L1:L2 DNA 1:9 normalized to 1:1; competitor m25.
Test [7] concerns the target D3H44 light chain F116A_Q124R_L135V_T178R. Nature of the test: LCCA, SPR tag readout, L1:L2 DNA 1:3 normalized to 1:1; competitor m24.
Test [8] has as its target D3H44 light chain F116A_Q124R_L135V. Described as above.
Test [9] has as its target D3H44 light chain Q124E_L135W_Q160E_T180E. As to the kind of experiment: LCCA, SPR tag readout, L1:L2 DNA 1:3 normalized to 1:1; competitor m23.
Test [10] shares this target. Nature of the test: LCCA, SPR tag readout, L1:L2 DNA 1:9 normalized to 1:1; competitor m23.
The target in test [11] is D3H44 light chain F116A_Q124R_L135V_T178R. As to the kind of experiment: LCCA, SPR tag readout, L1:L2 DNA 1:9 normalized to 1:1; competitor m24.
Test [12] concerns the target D3H44 light chain F116A_Q124R_L135V. Described as above.
In test [13] the target is D3H44 light chain Q124E_L135W_Q160E_T180E. As to the kind of experiment: LCCA, SPR tag readout, L1:L2 DNA 1:3 normalized to 1:1; competitor m25.
Test [14] addresses tissue factor (TF) antigen (UniProt P13726). As to the kind of experiment: SPR (ProteOn), Fab captured by anti-penta-His, TF as analyte, 1:1 fit; estimated value taken from the Fab differing only in L chain tag.
Test [15] shares this target. As to the kind of experiment: SPR (ProteOn), against wild-type D3H44 Fab; estimated value taken from the Fab differing only in L chain tag.
For test [16] the target is unchanged. As to the kind of experiment: SPR, Fab captured by anti-penta-His, TF injected, 1:1 fit.
For test [17] the target is unchanged. Nature of the test: SPR; log change of median KD against wild-type D3H44 Fab.
Test [18] has as its target D3H44 light chain T178R with N-terminal HA or FLAG tag. Nature of the test: LCCA (SPR tag readout), L1:L2 DNA 1:3, normalized to 1:1; competing light chain m13.
The target in test [19] is tissue factor (TF) antigen (UniProt P13726). Nature of the test: SPR (ProteOn XPR36), His-tagged Fab captured on anti-penta His, TF as analyte; against wild-type D3H44 Fab; batch C (+).
Test [20] shares this target. Nature of the test: SPR (ProteOn XPR36), His-tagged Fab captured on anti-penta His, TF as analyte, 1:1 fit; batch C (+).

Here are results for 26 substances from patent US11306156.

For the substance “D3H44 Fab heterodimer, H1 Q179R / L1 S131E (H1L1 Fab of LCCA Set # 9980)”, the change in median KD compared to wild type, -(log(KD design)-log(KD wt)) in test [1] was 0. Moreover, the Kd in test [2] is 0.16 nM.

Consider “D3H44 H1L1 Fab heterodimer of LCCA set 9635 (H1 L143E_K145T_Q179D; L1 Q124R_T178R)”, for which, in test [3], the Change in median values of KD of h1|1 Fab heterodimer compared to wild type (-(log(KD design)-log(KD wt))) is 0.04 log units and the Kd was 0.14 nM.

In the case of “H1L1 Fab heterodimer of LCCA Set # 9068 (D3H44 Fab; H1 F174G, L1 S131T_S176F_T178F)”, the Change in median values of KD of h1l1 Fab heterodimer compared to wild type (-(log(KD design)-log(KD wt))) in [4] was 0.07. The same substance yielded a Kd in test [5] of 0.13 nM.

Regarding D3H44 Fab heavy chain A139G_Q179K_V190A, the H1L1:H1L2 normalized median ratio came to 91% in [6]; 13% in test [7]; 15% in test [8]; 87% in test [9]; 86% in test [10]; 14% in test [11]. Moreover, the H1L1:H1L2 normalized median ratio in test [12] is 9%; in [13], 85%. In addition, the H1L1:H1L2 normalized median scalar value ln(r1/f1) in test [6] worked out at 2.31; in test [9] it was 1.88; in test [10] it was 1.85; in test [13], 1.71.

Regarding D3H44 Fab heavy chain Q179K, the H2L2:H2L1 normalized median ratio in test [6] was found to be 80%; in test [7], 12%; in test [8], 23%; in test [9], 88%; in [10] it was 87%; in test [11], 13%. For the same substance, the H2L2:H2L1 normalized median ratio in test [12] is 20%; in [13], 77%.

On to “H1L1 Fab heterodimer of LCCA Set # 9073 (D3H44 Fab; H1 F174V, L1 S131T_S176F_T178Y)”, for which the Change in median values of KD of h1l1 Fab heterodimer compared to wild type (-(log(KD design)-log(KD wt))) in test [4] was found to be 0.04. In test [5], the Kd worked out at 0.14 nM.

With “H1L1 Fab heterodimer of LCCA Set # 9569 (D3H44 Fab; H1 L124W_L143F, L1 V133A_S176T_T178L)”, the Change in median values of KD of h1l1 Fab heterodimer compared to wild type (-(log(KD design)-log(KD wt))) in [4] is -0.28. In test [5], this substance came in with a Kd of 0.3 nM.

In the case of “D3H44 Fab heterodimer, H1 S186R / L1 S131E (H1L1 Fab of LCCA Set # 9981 and 9985)”, in test [1], the change in median KD compared to wild type, -(log(KD design)-log(KD wt)) is 0.1. In test [2], this substance gave a Kd of 0.12 nM.

In the case of “D3H44 Fab heterodimer, H1L1 of LCCA set 9651 (H: L143E_K145T_Q179E; L: Q124R_Q160K_T178R)”, the Kd in [14] is 0.15 nM. Also, the Change in KD with respect to wild type (-(log(KD design) - log(KD wt))) in [15] was 0.02.

“H1L1 Fab heterodimer of LCCA sets 9574 and 9573 (D3H44 Fab, H1 L143A_Q179K, L1 Q124E_V133Y_T180E)”: in [16], the Kd came out at 0.27 nM. Further, the Change in median values of KD of h1l1 Fab heterodimer compared to wild type (-(log(KD design)-log(KD wt))) in [17] is -0.23 log units.

For the substance “D3H44 Fab heavy chain L143D_K145T_Q179E with C-terminal ABD2-His6 tag”, in test [18], the H1L1:H1L2 normalized median ratio is 79% and the H1L1:H1L2 normalized median scalar value ln(r1/f1) is 1.31.

With “H1L1 Fab heterodimer of LCCA Set # 9074 (D3H44 Fab; H1 H172R_Q179K, L1 Q124E_Q160E_T180E)”, the Change in median values of KD of h1l1 Fab heterodimer compared to wild type (-(log(KD design)-log(KD wt))) in test [4] is -0.01. For the same substance, the Kd in test [5] came out at 0.16 nM.

Consider “D3H44 Fab heavy chain A139W_L143E_K145T_Q179E”, for which the H1L1:H1L2 normalized median ratio in test [6] came out at 5%; in test [7], 98%; in test [8], 97%; in test [9] it was 2%; in test [10], 3%; in [11], 97%. The H1L1:H1L2 normalized median ratio in [12] amounted to 95%; in test [13] it was 3%. Also, the H2L2:H2L1 normalized median ratio in [6] was found to be 5%; in test [7] it was 98%; in test [8] it was 97%; in test [9], 2%; in [10], 3%; in test [11], 97%. The values for the H2L2:H2L1 normalized median ratio in [12] and in test [13] were 95% and 3%, respectively. In addition, the H1L1:H1L2 normalized median scalar value ln(r1/f1) in test [7] worked out at 3.79; in [8], 3.66; in test [11] it was 3.38; in test [12] it was 2.96.

In the case of “D3H44 Fab heterodimer, H1L1 of LCCA set 9645 (H: L143E_K145T_Q179E; L: Q124K_T178R)”, the Kd in test [14] was 0.14 nM. The Change in KD with respect to wild type (-(log(KD design) - log(KD wt))) in test [15] is 0.05.

In [16], “H1L1 Fab heterodimer of LCCA set 9058 (D3H44 Fab, H1 A139W_L143E_K145T_Q179E, L1 F116A_Q124R_L135V)” returned a Kd of 0.12 nM. Also, the Change in median values of KD of h1l1 Fab heterodimer compared to wild type (-(log(KD design)-log(KD wt))) in test [17] came out at 0.12 log units.

Substance “D3H44 Fab heterodimer, H1 Q39R_D146G_Q179K / L1 Q38E_Q124E_Q160E_T180E (H1L1 Fab of LCCA Set # 9822)” displayed a Change in median values of KD of h1|1 Fab heterodimer compared to wild type (-(log(KD design)-log(KD wt))) in test [19] of 0.17. In [20], this substance came in with a Kd of 0.11 nM.

Substance “H1L1 Fab heterodimer of LCCA sets 9078, 9077 and 9076 (D3H44 Fab, H1 H172T_Q179K, L1 Q124E_N137K_Q160E_S174R_T180E)” registered a Kd in [16] of 0.15 nM. Also, the Change in median values of KD of h1l1 Fab heterodimer compared to wild type (-(log(KD design)-log(KD wt))) in test [17] is 0.01 log units.

On to “D3H44 Fab heterodimer, H1L1 of LCCA set 9131 (H: L124E_K145M_Q179E; L: S131K_V133G_S176R)”, for which the Kd in test [14] was 0.15 nM. Also, the Change in KD with respect to wild type (-(log(KD design) - log(KD wt))) in [15] is 0.02.

As for “D3H44 Fab heterodimer, H1 S186K / L1 Q124E_T178E (H1L1 Fab of LCCA Set # 9850 and 9849)”, the change in median KD compared to wild type, -(log(KD design)-log(KD wt)) in test [1] came out at 0.01. Moreover, in [2], the Kd worked out at 0.15 nM.

Turning to “H1L1 Fab heterodimer of LCCA Set # 9070 (D3H44 Fab; H1 F174G, L1 S131T_S176F_T178Y)”, in test [4], the Change in median values of KD of h1l1 Fab heterodimer compared to wild type (-(log(KD design)-log(KD wt))) is 0. Moreover, in test [5], the Kd turned out to be 0.16 nM.

The substance “D3H44 Fab heterodimer, H1 S186R / L1 Q124E_Q160E_T178E (H1L1 Fab of LCCA Set # 9867 and 9868)” displayed a change in median KD compared to wild type, -(log(KD design)-log(KD wt)) in test [1] of 0.06. The substance also had a Kd in test [2] of 0.14 nM.

With “D3H44 Fab heterodimer, H1 S186R / L1 Q124E_T178E_T180E (H1L1 Fab of LCCA Set # 9889 and 9890)”, in test [1], the change in median KD compared to wild type, -(log(KD design)-log(KD wt)) came out at 0.49. Moreover, the Kd in test [2] is 0.05 nM.

Take “D3H44 Fab heterodimer, H1L1 of LCCA set 9657 (H: L143E_K145T_Q179E; L: Q124R_T178K)”: the Kd in test [14] is 0.19 nM. Also, the Change in KD with respect to wild type (-(log(KD design) - log(KD wt))) in [15] is -0.08.

For the substance “D3H44 H1L1 Fab heterodimer of LCCA set 9079 (H1 K145T_Q179E; L1 S131K)”, in test [3], the Change in median values of KD of h1|1 Fab heterodimer compared to wild type (-(log(KD design)-log(KD wt))) is -0.01 log units and the Kd was 0.16 nM.

As for “D3H44 Fab heterodimer, H1L1 of LCCA set 9683 (H: L143E_K145T_Q179E; L: T178R)”, the Kd in test [14] is 0.3 nM. The Change in KD with respect to wild type (-(log(KD design) - log(KD wt))) in [15] was -0.28.

In [16], “H1L1 Fab heterodimer of LCCA sets 9721, 9720, 9723, 9722, 9725, 9716, 9712 and 9708 (D3H44 Fab, H1 L143E_K145T_S188L, L1 Q124R_Q160K_T178R)” had a Kd of 0.24 nM. Further, the Change in median values of KD of h1l1 Fab heterodimer compared to wild type (-(log(KD design)-log(KD wt))) in [17] was -0.19 log units.

Broadly, the Kd is the equilibrium constant for the complex coming apart.
